Earlier results in paper PMC6685676.
Read-outs that look alike come from different tables or passages of the source.

Tests used:
[1] = target: angiotensin III (Homo sapiens) (UniProt P01019)
[2] = target: angiotensin III (Homo sapiens) (UniProt P01019); remark: listed apart in the source

Sequence of UniProt P01019 (P01019 whole entry, looked up): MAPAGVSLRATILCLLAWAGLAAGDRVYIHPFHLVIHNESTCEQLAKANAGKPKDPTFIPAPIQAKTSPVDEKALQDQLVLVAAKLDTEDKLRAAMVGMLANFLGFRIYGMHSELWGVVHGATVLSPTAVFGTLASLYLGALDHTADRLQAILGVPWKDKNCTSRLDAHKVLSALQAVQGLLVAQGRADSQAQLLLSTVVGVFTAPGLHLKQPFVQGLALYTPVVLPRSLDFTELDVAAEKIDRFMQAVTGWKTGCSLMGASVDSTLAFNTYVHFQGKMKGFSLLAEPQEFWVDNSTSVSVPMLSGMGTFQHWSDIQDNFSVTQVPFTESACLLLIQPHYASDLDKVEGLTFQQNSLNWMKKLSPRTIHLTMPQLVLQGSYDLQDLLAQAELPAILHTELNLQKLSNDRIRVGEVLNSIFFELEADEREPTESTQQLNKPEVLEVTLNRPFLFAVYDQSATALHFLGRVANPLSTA

| Ki [1] [nM] | Ki [2] [nM] | Substance |
| --- | --- | --- |
| 24 |  | DPP3 (from UniProt O55096) |
|  | 88 | DPP3 (from UniProt Q9NY33) |
